PL^pro-catalysed isopeptide amide bond hydrolysis by SPE-MS, time course to ~240 min (0.2 uM PL^pro, 2.0 uM peptide, 50 mM Tris pH 8.0, ambient temperature) data for one molecule are collected here from paper PMC10933793.

Ends that are not written are not given here.

The experiment has as its target PL^pro domain of SARS-CoV-2 nsp3 (E746-T1063) (SARS-CoV-2).

B1: K193-branched IRF3_(189-197)-ISG15 oligopeptide 4 (peptide)
chain 1: ENPLKRLLV-NH2
chain 2: LSTVFMNLRLRGG
modifications: also: lactam at chain A 5 at chain B 13 to a chain's C-terminus
In turn, B1 displayed a PL^pro-catalysed isopeptide amide bond hydrolysis by SPE-MS, time course to ~240 min (0.2 uM PL^pro, 2.0 uM peptide, 50 mM Tris pH 8.0, ambient temperature) of 20%.
